# In patent publication US20220135701A1 (Genentech, published 2022):
# T1: human MerTK (human, UniProt Q12866 26-499)
# T1 construct: also called HuMER
# T1 sequence: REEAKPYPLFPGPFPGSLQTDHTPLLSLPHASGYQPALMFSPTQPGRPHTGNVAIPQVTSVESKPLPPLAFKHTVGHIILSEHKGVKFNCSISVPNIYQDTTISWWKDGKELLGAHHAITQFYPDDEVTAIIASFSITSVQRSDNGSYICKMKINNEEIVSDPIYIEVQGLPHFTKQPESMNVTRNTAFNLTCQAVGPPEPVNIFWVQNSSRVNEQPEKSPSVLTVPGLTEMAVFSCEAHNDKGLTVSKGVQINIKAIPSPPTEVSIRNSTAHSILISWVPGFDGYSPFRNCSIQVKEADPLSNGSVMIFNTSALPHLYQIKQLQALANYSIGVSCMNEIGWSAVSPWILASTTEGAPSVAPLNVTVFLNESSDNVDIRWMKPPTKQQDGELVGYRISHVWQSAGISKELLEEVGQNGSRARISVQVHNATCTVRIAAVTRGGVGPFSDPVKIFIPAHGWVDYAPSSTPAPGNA
# Target: T1, human MerTK
# Experiment: SPR BIAcore T200, Ab captured, 37C
# Description: Each humanized mutation variant was subject to BIAcore analysis to determine the important rabbit residues for binding and stability. Binding affinity determinations were obtained using Surface Plasmon Resonance (SRP) measurements from a BIAcore™-T200 instrument. Briefly, each humanized mutation variant antibody was captured to achieve approximately 100 RU (Response Units). Then, 3-fold serial dilutions of human MerTK (0.4 nM to 100 nM) diluted in HBS-EP buffer (0.01M HEPES pH 7.4, 0.15M NaCl, 3 mM EDTA and 0.05% v/v surfactant P20) was injected into the BIAcore™-T200 instrument at 37° C. with a flow rate of 30 μl/min. Association rates (kₒₙ) and dissociation rates (koff) were calculated using a simple one-to-one Langmuir binding model (BIAcore T200 evaluation software version 2.0). The equilibrium dissociation constant (KD) was calculated as the ratio koff/kₒₙ.
binder,measurement,value
"h13B4.V1 HC F91Y (antibody, name in Kabat numbering, V domains shown, Framework variant of h13B4.v1 (human IgG1)) VH: EQQLVESGEGLVQPGGSLRLSCAVSGFSLSSYAMGWVRQAPGKGLEWIGIINSYGNTYYANWAKGRFTISRDSSKNTVYLQMGSLRAEDMAVYYCARDPGVSSNLWGPGTLVTVSS VL: DVQMTQSPSTLSASVGDRVTITCQASQNIYSGLAWYQQKPGKPPKLLIYGASKLASGVPSRFSGSGSGTEFTLTISSLQPDDFATYYCQATYYSSNSVAFGGGTKVEIK",Kd,4.5 nM
"h13B4.V1 HC G49S (antibody, human IgG1, name in Kabat numbering, V domains shown, Framework variant of h13B4.v1 (human IgG1)) VH: EQQLVESGEGLVQPGGSLRLSCAVSGFSLSSYAMGWVRQAPGKGLEWISIINSYGNTYYANWAKGRFTISRDSSKNTVYLQMGSLRAEDMAVYFCARDPGVSSNLWGPGTLVTVSS VL: DVQMTQSPSTLSASVGDRVTITCQASQNIYSGLAWYQQKPGKPPKLLIYGASKLASGVPSRFSGSGSGTEFTLTISSLQPDDFATYYCQATYYSSNSVAFGGGTKVEIK",Kd,51.5 nM
"h13B4.V1 HC S73N (antibody, human IgG1, name in Kabat numbering, V domains shown, Framework variant of h13B4.v1 (human IgG1)) VH: EQQLVESGEGLVQPGGSLRLSCAVSGFSLSSYAMGWVRQAPGKGLEWIGIINSYGNTYYANWAKGRFTISRDNSKNTVYLQMGSLRAEDMAVYFCARDPGVSSNLWGPGTLVTVSS VL: DVQMTQSPSTLSASVGDRVTITCQASQNIYSGLAWYQQKPGKPPKLLIYGASKLASGVPSRFSGSGSGTEFTLTISSLQPDDFATYYCQATYYSSNSVAFGGGTKVEIK",Kd,4.7 nM
"h13B4.V1 HC Q2V (antibody, human IgG1, name in Kabat numbering, V domains shown, Framework variant of h13B4.v1 (human IgG1)) VH: EVQLVESGEGLVQPGGSLRLSCAVSGFSLSSYAMGWVRQAPGKGLEWIGIINSYGNTYYANWAKGRFTISRDSSKNTVYLQMGSLRAEDMAVYFCARDPGVSSNLWGPGTLVTVSS VL: DVQMTQSPSTLSASVGDRVTITCQASQNIYSGLAWYQQKPGKPPKLLIYGASKLASGVPSRFSGSGSGTEFTLTISSLQPDDFATYYCQATYYSSNSVAFGGGTKVEIK",Kd,4.5 nM
"h13B4.V1 HC P105R (antibody, name in Kabat numbering, V domains shown, Framework variant of h13B4.v1 (human IgG1)) VH: EQQLVESGEGLVQPGGSLRLSCAVSGFSLSSYAMGWVRQAPGKGLEWIGIINSYGNTYYANWAKGRFTISRDSSKNTVYLQMGSLRAEDMAVYFCARDPGVSSNLWGRGTLVTVSS VL: DVQMTQSPSTLSASVGDRVTITCQASQNIYSGLAWYQQKPGKPPKLLIYGASKLASGVPSRFSGSGSGTEFTLTISSLQPDDFATYYCQATYYSSNSVAFGGGTKVEIK",Kd,4.2 nM
"h13B4.V1 HC I48V (antibody, human IgG1, name in Kabat numbering, V domains shown, Framework variant of h13B4.v1 (human IgG1)) VH: EQQLVESGEGLVQPGGSLRLSCAVSGFSLSSYAMGWVRQAPGKGLEWVGIINSYGNTYYANWAKGRFTISRDSSKNTVYLQMGSLRAEDMAVYFCARDPGVSSNLWGPGTLVTVSS VL: DVQMTQSPSTLSASVGDRVTITCQASQNIYSGLAWYQQKPGKPPKLLIYGASKLASGVPSRFSGSGSGTEFTLTISSLQPDDFATYYCQATYYSSNSVAFGGGTKVEIK",Kd,5.8 nM
"h13B4.V1 LC V21 (antibody, human IgG1, V domains shown, Framework variant of h13B4.v1 (human IgG1); read as V2I (V at VL position 2 in v1, I in v16); also called LC V2I) VH: EQQLVESGEGLVQPGGSLRLSCAVSGFSLSSYAMGWVRQAPGKGLEWIGIINSYGNTYYANWAKGRFTISRDSSKNTVYLQMGSLRAEDMAVYFCARDPGVSSNLWGPGTLVTVSS VL: DIQMTQSPSTLSASVGDRVTITCQASQNIYSGLAWYQQKPGKPPKLLIYGASKLASGVPSRFSGSGSGTEFTLTISSLQPDDFATYYCQATYYSSNSVAFGGGTKVEIK",Kd,5.6 nM
"h13B4.V1 HC V24A (antibody, human IgG1, name in Kabat numbering, V domains shown, Framework variant of h13B4.v1 (human IgG1)) VH: EQQLVESGEGLVQPGGSLRLSCAASGFSLSSYAMGWVRQAPGKGLEWIGIINSYGNTYYANWAKGRFTISRDSSKNTVYLQMGSLRAEDMAVYFCARDPGVSSNLWGPGTLVTVSS VL: DVQMTQSPSTLSASVGDRVTITCQASQNIYSGLAWYQQKPGKPPKLLIYGASKLASGVPSRFSGSGSGTEFTLTISSLQPDDFATYYCQATYYSSNSVAFGGGTKVEIK",Kd,6 nM
"h13B4.V1 HC W47Y (antibody, human IgG1, name in Kabat numbering, V domains shown, Framework variant of h13B4.v1 (human IgG1)) VH: EQQLVESGEGLVQPGGSLRLSCAVSGFSLSSYAMGWVRQAPGKGLEYIGIINSYGNTYYANWAKGRFTISRDSSKNTVYLQMGSLRAEDMAVYFCARDPGVSSNLWGPGTLVTVSS VL: DVQMTQSPSTLSASVGDRVTITCQASQNIYSGLAWYQQKPGKPPKLLIYGASKLASGVPSRFSGSGSGTEFTLTISSLQPDDFATYYCQATYYSSNSVAFGGGTKVEIK",Kd,3.1 nM
"h13B4.V1 HC V78L (antibody, human IgG1, name in Kabat numbering, V domains shown, Framework variant of h13B4.v1 (human IgG1)) VH: EQQLVESGEGLVQPGGSLRLSCAVSGFSLSSYAMGWVRQAPGKGLEWIGIINSYGNTYYANWAKGRFTISRDSSKNTLYLQMGSLRAEDMAVYFCARDPGVSSNLWGPGTLVTVSS VL: DVQMTQSPSTLSASVGDRVTITCQASQNIYSGLAWYQQKPGKPPKLLIYGASKLASGVPSRFSGSGSGTEFTLTISSLQPDDFATYYCQATYYSSNSVAFGGGTKVEIK",Kd,9.2 nM
"h13B4.V1 LC P43A (antibody, human IgG1, name in Kabat numbering, V domains shown, Framework variant of h13B4.v1 (human IgG1)) VH: EQQLVESGEGLVQPGGSLRLSCAVSGFSLSSYAMGWVRQAPGKGLEWIGIINSYGNTYYANWAKGRFTISRDSSKNTVYLQMGSLRAEDMAVYFCARDPGVSSNLWGPGTLVTVSS VL: DVQMTQSPSTLSASVGDRVTITCQASQNIYSGLAWYQQKPGKAPKLLIYGASKLASGVPSRFSGSGSGTEFTLTISSLQPDDFATYYCQATYYSSNSVAFGGGTKVEIK",Kd,4.6 nM
"h10F7.V1 HC F91Y (antibody, name in Kabat numbering, V domains shown, Framework variant of h10F7.v1 (human IgG1)) VH: EQQLVESGGGLVQPGGSLRLSCAVSGFSLSGYAMSWVRQAPGKGLEYIGVISSSGSSYYPSWAKGRFTISKDSSKNTVYLQMGSLRAEDMAVYYCARVQFYVGYAVYGYGIIDRLDLWGQGTLVTVSS VL: DAVLTQSPDSLAVSLGERATINCQSSKSVYNNNWLSWYQQKPGQPPKLLIYRASTLESGVPDRFSGSGSGTDFTLTISSLQAEDVAVYFCAGGYSSSSSANAFGGGTKVEIK",Kd,6.4 nM
"h10F7.V1 HC V78L (antibody, human IgG1, name in Kabat numbering, V domains shown, Framework variant of h10F7.v1 (human IgG1)) VH: EQQLVESGGGLVQPGGSLRLSCAVSGFSLSGYAMSWVRQAPGKGLEYIGVISSSGSSYYPSWAKGRFTISKDSSKNTLYLQMGSLRAEDMAVYFCARVQFYVGYAVYGYGIIDRLDLWGQGTLVTVSS VL: DAVLTQSPDSLAVSLGERATINCQSSKSVYNNNWLSWYQQKPGQPPKLLIYRASTLESGVPDRFSGSGSGTDFTLTISSLQAEDVAVYFCAGGYSSSSSANAFGGGTKVEIK",Kd,5.1 nM
"h10F7.V1 HC S73N (antibody, human IgG1, name in Kabat numbering, V domains shown, Framework variant of h10F7.v1 (human IgG1)) VH: EQQLVESGGGLVQPGGSLRLSCAVSGFSLSGYAMSWVRQAPGKGLEYIGVISSSGSSYYPSWAKGRFTISKDNSKNTVYLQMGSLRAEDMAVYFCARVQFYVGYAVYGYGIIDRLDLWGQGTLVTVSS VL: DAVLTQSPDSLAVSLGERATINCQSSKSVYNNNWLSWYQQKPGQPPKLLIYRASTLESGVPDRFSGSGSGTDFTLTISSLQAEDVAVYFCAGGYSSSSSANAFGGGTKVEIK",Kd,7.6 nM
"h10F7.V1 HC Q2V (antibody, human IgG1, name in Kabat numbering, V domains shown, Framework variant of h10F7.v1 (human IgG1)) VH: EVQLVESGGGLVQPGGSLRLSCAVSGFSLSGYAMSWVRQAPGKGLEYIGVISSSGSSYYPSWAKGRFTISKDSSKNTVYLQMGSLRAEDMAVYFCARVQFYVGYAVYGYGIIDRLDLWGQGTLVTVSS VL: DAVLTQSPDSLAVSLGERATINCQSSKSVYNNNWLSWYQQKPGQPPKLLIYRASTLESGVPDRFSGSGSGTDFTLTISSLQAEDVAVYFCAGGYSSSSSANAFGGGTKVEIK",Kd,5.9 nM
"h10F7.V1 HC K71R (antibody, human IgG1, name in Kabat numbering, V domains shown, Framework variant of h10F7.v1 (human IgG1)) VH: EQQLVESGGGLVQPGGSLRLSCAVSGFSLSGYAMSWVRQAPGKGLEYIGVISSSGSSYYPSWAKGRFTISRDSSKNTVYLQMGSLRAEDMAVYFCARVQFYVGYAVYGYGIIDRLDLWGQGTLVTVSS VL: DAVLTQSPDSLAVSLGERATINCQSSKSVYNNNWLSWYQQKPGQPPKLLIYRASTLESGVPDRFSGSGSGTDFTLTISSLQAEDVAVYFCAGGYSSSSSANAFGGGTKVEIK",Kd,15.3 nM
"h10F7.V1 HC V24A (antibody, human IgG1, name in Kabat numbering, V domains shown, Framework variant of h10F7.v1 (human IgG1)) VH: EQQLVESGGGLVQPGGSLRLSCAASGFSLSGYAMSWVRQAPGKGLEYIGVISSSGSSYYPSWAKGRFTISKDSSKNTVYLQMGSLRAEDMAVYFCARVQFYVGYAVYGYGIIDRLDLWGQGTLVTVSS VL: DAVLTQSPDSLAVSLGERATINCQSSKSVYNNNWLSWYQQKPGQPPKLLIYRASTLESGVPDRFSGSGSGTDFTLTISSLQAEDVAVYFCAGGYSSSSSANAFGGGTKVEIK",Kd,9.4 nM
"h10F7.V1 HC G49S (antibody, human IgG1, name in Kabat numbering, V domains shown, Framework variant of h10F7.v1 (human IgG1)) VH: EQQLVESGGGLVQPGGSLRLSCAVSGFSLSGYAMSWVRQAPGKGLEYISVISSSGSSYYPSWAKGRFTISKDSSKNTVYLQMGSLRAEDMAVYFCARVQFYVGYAVYGYGIIDRLDLWGQGTLVTVSS VL: DAVLTQSPDSLAVSLGERATINCQSSKSVYNNNWLSWYQQKPGQPPKLLIYRASTLESGVPDRFSGSGSGTDFTLTISSLQAEDVAVYFCAGGYSSSSSANAFGGGTKVEIK",Kd,9.5 nM
"h10F7.V1 HC I48V (antibody, human IgG1, name in Kabat numbering, V domains shown, Framework variant of h10F7.v1 (human IgG1)) VH: EQQLVESGGGLVQPGGSLRLSCAVSGFSLSGYAMSWVRQAPGKGLEYVGVISSSGSSYYPSWAKGRFTISKDSSKNTVYLQMGSLRAEDMAVYFCARVQFYVGYAVYGYGIIDRLDLWGQGTLVTVSS VL: DAVLTQSPDSLAVSLGERATINCQSSKSVYNNNWLSWYQQKPGQPPKLLIYRASTLESGVPDRFSGSGSGTDFTLTISSLQAEDVAVYFCAGGYSSSSSANAFGGGTKVEIK",Kd,9.3 nM
